The nature of the series: In vitro BrM permeation assay, Ussing chamber. The note with it: 0.1 mg/ml, up to 72 h, in words. The series is classed as in vitro ADME, porcine. Here is the method: Porcine Bruch's membrane samples are used for this measurement. Porcine eyes are collected from the slaughterhouse) no more than 6 hours after the animals were sacrificed and stored at 4° C. until use (on same day).
Preparation of enriched Bruch's Membrane (BrM): The eyes are placed into a disposable petri-dish and any residual tissue surrounding the eyeball is removed. The eyeball is incised next to the iris with a scalpel and the front part of the eye as well as lens, vitreous and retinal tissue are removed from the eyecup. […]
Sampling and membrane integrity analysis: For sampling at different timepoints (4 h, 24 h, 48 h and 72 h) the solution in the single compartments is mixed by carefully pipetting up and down and 90 μl were transferred separately from each sample and diffusate chamber to collection tubes. […] Accumulation of blue particles in the second compartment is observed and camera pictures are recorded to control for overall membrane integrity.
Sample analysis: 15 μl of each solution from the sample and diffusate chambers are effectively loaded on 2 precast polyacrylamide gels (NuPAGE Bis-Tris gels) together with a similar amount of stored mastermix as loading control. The first gel is analyzed by standard SDS-PAGE and Coomassie-based staining methods for protein detection (anti-C3 scFv). […]
Evaluation: Pictures of the SDS-gels are analyzed using ImageJ2 software (Fiji). […]

B1: Clone I: humanized anti-C3 scFv, VH SEQ ID NO: 20, VL SEQ ID NO: 21; scFv SEQ ID NO: 26 or 27 (antibody, V domains shown)
VH: QVQLVESGGGSVQPGRSLRLSCAASGFTFSNYAMNWVRQAPGKGLEWVAVISYDGSNKYYADSVKGRFTISRDNSKNTLYLQMNSLRAEDTASYYCARAVGYHHARLDPWGCGTSVTVSS
VL: QLVLTQSPSASASLGASVKLTCTLSSAHKTYTIDWYQQQPEKCPRYLMQLKSDGSYTKGSGIPDRFSGSSSGAERYLTISSLQSEDEADYYCGTEGVGGYVFGGGTKLTVLG
modifications: VH; VL
As for B1, the “Diffusion/penetration through porcine Bruch's membrane” value is given as “superior diffusion ability”.

Values taken from patent US12344663B2, “Anti-C3 antibodies and antigen-binding fragments thereof and their uses for treating eye or ocular diseases” (CDR-Life AG, priority 2021, dated 2025).
